# Reference: publication PMC7094161
# Key:
# [1] = target: CDC25C substrate peptide of the EKAR construct; test: FRET or BRET; FRET/FLIM: EGFP fluorescence lifetime of EKAR constructs (WW domain and peptide on one chain) in living COS cells; serum in the medium
# [2] = target: CDC25C substrate peptide of the EKAR construct; test: FRET or BRET; FRET/FLIM: EGFP fluorescence lifetime of EKAR constructs (WW domain and peptide on one chain) in fixed, mounted COS cells; serum in the medium
# Sequence of Pin1 WW domain of the EKAR construct (Q13526 5-39): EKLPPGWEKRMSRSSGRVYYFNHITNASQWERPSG
substance,measurement,setting,value
Pin1 WW domain of the EKAR construct (from UniProt Q13526 5-39) (domain or fragment),EGFP fluorescence lifetime,[1],2.12 ns
same,EGFP fluorescence lifetime,[2],1.68 ns
